Biological target: T1, Nectin-4 extracellular domain Fc fusion recombinant protein (Nec4-VCC) (human, UniProt Q96NY8 32-349)
T1 construct: extracellular domain; also called Nectin-4-VCC-Fc; not shown: Fc part
T1 sequence (looked up): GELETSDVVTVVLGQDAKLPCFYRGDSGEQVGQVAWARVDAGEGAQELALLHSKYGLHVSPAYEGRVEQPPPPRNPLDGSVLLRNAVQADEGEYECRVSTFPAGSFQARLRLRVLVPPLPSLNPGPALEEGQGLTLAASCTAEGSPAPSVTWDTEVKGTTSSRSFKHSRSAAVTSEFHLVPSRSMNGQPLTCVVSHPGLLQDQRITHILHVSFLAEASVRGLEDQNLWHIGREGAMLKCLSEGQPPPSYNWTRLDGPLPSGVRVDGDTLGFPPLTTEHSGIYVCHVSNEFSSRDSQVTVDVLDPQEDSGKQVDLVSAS
Assay: statement in the legend of the competition ELISA on Nec4-VCC

binding result: binds
B1: Enfortumab (HA22) (antibody, V domains shown)
VH: EVQLVESGGGLVQPGGSLRLSCAASGFTFSSYNMNWVRQAPGKGLEWVSYISSSSSTIYYADSVKGRFTISRDNAKNSLSLQMNSLRDEDTAVYYCARAYYYGMDVWGQGTTVTVSS
VL: DIQMTQSPSSVSASVGDRVTITCRASQGISGWLAWYQQKPGKAPKFLIYAASTLQSGVPSRFSGSGSGTDFTLTISSLQPEDFATYYCQQANSFPPTFGGGTKVEIK
notes: also called HA22 mAb
